Measurements taken from US20220017612A1.

Assays:
[1] = target: LAP-TGFβ1 on U937 cells (Homo sapiens) (UniProt P01137); assay: flow cytometry dot plot against GARP, U937 cells, Alexa 647 antibody at 10 ug/ml
[2] = target: human-chicken LAP-TGFβ1 chimera #2 on HT1080 cells (human/chicken chimera); assay: flow cytometry, transduced HT1080 cells
[3] = target: human-chicken LAP-TGFβ1 chimera #1.3 on HT1080 cells (human/chicken chimera) (UniProt P01137); assay: flow cytometry, transduced HT1080 cells
[4] = target: human-chicken LAP-TGFβ1 chimera #1 on HT1080 cells (human/chicken chimera); assay: flow cytometry, transduced HT1080 cells
[5] = target: human-chicken LAP-TGFβ1 chimera #4 on HT1080 cells (human/chicken chimera) (UniProt P01137); assay: flow cytometry, transduced HT1080 cells
[6] = target: human-chicken LAP-TGFβ1 chimera #2.2 on HT1080 cells (human/chicken chimera) (UniProt P01137); assay: flow cytometry, transduced HT1080 cells
[7] = target: human-chicken LAP-TGFβ1 chimera #2.1 on HT1080 cells (human/chicken chimera) (UniProt P01137); assay: flow cytometry, transduced HT1080 cells
[8] = target: human-chicken LAP-TGFβ1 chimera #5 on HT1080 cells (human/chicken chimera); assay: flow cytometry, transduced HT1080 cells
[9] = target: chicken LAP-TGFβ1 on HT1080 cells (chicken) (UniProt P09531); assay: flow cytometry, transduced HT1080 cells
[10] = target: human-chicken LAP-TGFβ1 chimera #1.2 on HT1080 cells (human/chicken chimera) (UniProt P01137); assay: flow cytometry, transduced HT1080 cells
[11] = target: human-chicken LAP-TGFβ1 chimera #3 on HT1080 cells (human/chicken chimera) (UniProt P01137); assay: flow cytometry, transduced HT1080 cells
[12] = target: human-chicken LAP-TGFβ1 chimera #6 on HT1080 cells (human/chicken chimera) (UniProt P01137); assay: flow cytometry, transduced HT1080 cells
[13] = target: human-chicken LAP-TGFβ1 chimera #7 on HT1080 cells (human/chicken chimera) (UniProt P01137); assay: flow cytometry, transduced HT1080 cells
[14] = target: human LAP-TGFβ1 overexpressed on cells (human) (UniProt P01137); assay: flow cytometry, transduced HT1080 cells
Sequence of human LAP-TGFβ1 overexpressed on cells (human) (P01137 30-390): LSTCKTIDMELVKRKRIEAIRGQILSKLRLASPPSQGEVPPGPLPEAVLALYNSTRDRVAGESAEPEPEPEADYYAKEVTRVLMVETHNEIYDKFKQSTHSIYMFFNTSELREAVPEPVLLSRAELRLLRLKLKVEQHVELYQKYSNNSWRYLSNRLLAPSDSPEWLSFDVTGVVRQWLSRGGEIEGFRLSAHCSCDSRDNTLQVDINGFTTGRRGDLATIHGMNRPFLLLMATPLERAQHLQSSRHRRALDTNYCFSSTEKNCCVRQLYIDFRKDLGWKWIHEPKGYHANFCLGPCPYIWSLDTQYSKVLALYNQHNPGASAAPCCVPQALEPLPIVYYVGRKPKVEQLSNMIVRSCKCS

Sequence of LAP-TGFβ1 on U937 cells (Homo sapiens) (P01137 30-390 limits assumed): as the sequence (P01137 30-390) above
Sequence of human-chicken LAP-TGFβ1 chimera #5 on HT1080 cells (human/chicken chimera) (chain, as listed by the source mutant limits assumed): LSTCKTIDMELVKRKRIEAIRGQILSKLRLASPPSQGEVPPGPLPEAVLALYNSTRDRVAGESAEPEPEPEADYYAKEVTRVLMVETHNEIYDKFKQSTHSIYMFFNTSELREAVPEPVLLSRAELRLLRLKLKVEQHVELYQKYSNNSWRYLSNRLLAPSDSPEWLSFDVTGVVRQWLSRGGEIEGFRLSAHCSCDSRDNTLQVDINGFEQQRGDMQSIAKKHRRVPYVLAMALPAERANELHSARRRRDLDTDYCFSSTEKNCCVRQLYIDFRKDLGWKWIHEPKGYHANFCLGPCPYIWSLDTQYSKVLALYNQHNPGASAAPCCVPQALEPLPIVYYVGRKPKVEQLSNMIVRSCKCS
Sequence of human-chicken LAP-TGFβ1 chimera #4 on HT1080 cells (human/chicken chimera) (P01137 other isoform, or with tags, fused parts or gaps mutant): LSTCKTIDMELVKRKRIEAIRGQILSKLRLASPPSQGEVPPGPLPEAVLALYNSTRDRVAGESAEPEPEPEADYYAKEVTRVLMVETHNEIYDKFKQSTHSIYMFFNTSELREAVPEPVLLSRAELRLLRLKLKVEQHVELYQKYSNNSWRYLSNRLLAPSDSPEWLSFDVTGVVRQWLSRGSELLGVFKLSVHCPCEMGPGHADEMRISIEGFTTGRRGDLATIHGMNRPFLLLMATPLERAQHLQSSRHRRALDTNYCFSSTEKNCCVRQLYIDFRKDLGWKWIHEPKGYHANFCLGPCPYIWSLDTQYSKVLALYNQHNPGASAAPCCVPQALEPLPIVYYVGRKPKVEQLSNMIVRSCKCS
Sequence of human-chicken LAP-TGFβ1 chimera #1.3 on HT1080 cells (human/chicken chimera) (P01137 other isoform, or with tags, fused parts or gaps mutant): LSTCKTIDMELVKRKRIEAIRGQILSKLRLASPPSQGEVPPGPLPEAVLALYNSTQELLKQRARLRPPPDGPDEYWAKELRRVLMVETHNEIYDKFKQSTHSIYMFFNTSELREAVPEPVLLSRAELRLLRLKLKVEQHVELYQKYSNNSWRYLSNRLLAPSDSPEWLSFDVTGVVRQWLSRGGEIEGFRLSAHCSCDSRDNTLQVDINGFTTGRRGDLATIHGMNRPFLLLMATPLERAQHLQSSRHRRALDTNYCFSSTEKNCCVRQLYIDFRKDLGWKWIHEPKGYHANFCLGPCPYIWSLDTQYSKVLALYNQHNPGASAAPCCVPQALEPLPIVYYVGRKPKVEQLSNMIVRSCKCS
Sequence of human-chicken LAP-TGFβ1 chimera #1.2 on HT1080 cells (human/chicken chimera) (P01137 other isoform, or with tags, fused parts or gaps mutant): as the sequence (P01137 30-390) above, with A31T, S32A, S35P, Q36A, G37S, V39T, G42R, E46D, A47D, L49R counted along it
Sequence of human-chicken LAP-TGFβ1 chimera #2.1 on HT1080 cells (human/chicken chimera) (P01137 other isoform, or with tags, fused parts or gaps mutant): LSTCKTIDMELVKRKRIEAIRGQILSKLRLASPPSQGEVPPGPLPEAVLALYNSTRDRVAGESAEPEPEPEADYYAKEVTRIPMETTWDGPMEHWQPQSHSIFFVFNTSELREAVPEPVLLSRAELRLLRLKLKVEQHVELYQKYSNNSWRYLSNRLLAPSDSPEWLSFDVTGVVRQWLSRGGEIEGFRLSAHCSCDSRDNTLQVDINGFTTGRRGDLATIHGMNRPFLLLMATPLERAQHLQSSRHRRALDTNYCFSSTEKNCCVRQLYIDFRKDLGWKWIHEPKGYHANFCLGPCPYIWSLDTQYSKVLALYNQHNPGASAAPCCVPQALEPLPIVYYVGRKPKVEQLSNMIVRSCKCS
Sequence of chicken LAP-TGFβ1 on HT1080 cells (chicken) (P09531 19-391): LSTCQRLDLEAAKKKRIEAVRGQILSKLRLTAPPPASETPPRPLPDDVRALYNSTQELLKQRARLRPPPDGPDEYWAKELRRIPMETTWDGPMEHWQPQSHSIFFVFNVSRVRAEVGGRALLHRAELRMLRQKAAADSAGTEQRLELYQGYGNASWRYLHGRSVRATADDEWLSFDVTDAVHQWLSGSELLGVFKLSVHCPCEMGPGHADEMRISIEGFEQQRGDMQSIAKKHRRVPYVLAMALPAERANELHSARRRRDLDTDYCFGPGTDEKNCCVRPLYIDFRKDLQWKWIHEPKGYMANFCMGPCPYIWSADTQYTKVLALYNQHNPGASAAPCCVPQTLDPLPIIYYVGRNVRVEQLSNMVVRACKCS
Sequence of human-chicken LAP-TGFβ1 chimera #7 on HT1080 cells (human/chicken chimera) (P01137 other isoform, or with tags, fused parts or gaps mutant): as the sequence (P01137 30-390) above, with A331T, E333D, V338I, K344N, P345V, K346R, I354V, S357A counted along it
Sequence of human-chicken LAP-TGFβ1 chimera #1 on HT1080 cells (human/chicken chimera) (chain, as listed by the source mutant limits assumed): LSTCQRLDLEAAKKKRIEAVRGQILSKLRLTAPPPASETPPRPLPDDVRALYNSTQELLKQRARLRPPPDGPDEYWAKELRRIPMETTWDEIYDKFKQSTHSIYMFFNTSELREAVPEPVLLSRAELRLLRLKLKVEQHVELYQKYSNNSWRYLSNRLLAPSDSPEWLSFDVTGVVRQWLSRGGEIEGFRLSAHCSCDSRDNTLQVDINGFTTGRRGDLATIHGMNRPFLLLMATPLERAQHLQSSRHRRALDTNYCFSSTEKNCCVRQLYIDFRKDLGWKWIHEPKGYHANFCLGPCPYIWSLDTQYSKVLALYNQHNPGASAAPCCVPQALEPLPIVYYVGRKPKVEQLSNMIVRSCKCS
Sequence of human-chicken LAP-TGFβ1 chimera #6 on HT1080 cells (human/chicken chimera) (P01137 other isoform, or with tags, fused parts or gaps mutant): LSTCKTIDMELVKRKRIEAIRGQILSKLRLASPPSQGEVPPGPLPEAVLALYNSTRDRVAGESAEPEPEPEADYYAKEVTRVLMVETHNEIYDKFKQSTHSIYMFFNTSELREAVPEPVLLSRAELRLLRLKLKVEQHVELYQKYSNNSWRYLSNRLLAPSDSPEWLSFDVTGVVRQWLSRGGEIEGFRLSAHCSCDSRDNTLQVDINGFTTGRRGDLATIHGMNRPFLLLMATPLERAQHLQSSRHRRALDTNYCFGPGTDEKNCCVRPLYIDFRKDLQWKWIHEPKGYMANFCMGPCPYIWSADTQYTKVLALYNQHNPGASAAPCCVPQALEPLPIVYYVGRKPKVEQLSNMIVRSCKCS
Sequence of human-chicken LAP-TGFβ1 chimera #2 on HT1080 cells (human/chicken chimera) (chain, as listed by the source mutant limits assumed): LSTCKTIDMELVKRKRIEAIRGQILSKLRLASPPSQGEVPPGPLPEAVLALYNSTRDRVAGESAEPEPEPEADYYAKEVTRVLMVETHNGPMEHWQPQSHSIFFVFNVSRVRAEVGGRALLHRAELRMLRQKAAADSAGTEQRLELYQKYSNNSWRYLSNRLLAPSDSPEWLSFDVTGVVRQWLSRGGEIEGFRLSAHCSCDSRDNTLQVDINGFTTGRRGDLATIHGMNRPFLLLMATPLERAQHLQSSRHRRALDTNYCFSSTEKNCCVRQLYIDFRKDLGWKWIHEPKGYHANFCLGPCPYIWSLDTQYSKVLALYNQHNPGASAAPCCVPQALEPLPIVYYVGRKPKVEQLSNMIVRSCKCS
Sequence of human-chicken LAP-TGFβ1 chimera #3 on HT1080 cells (human/chicken chimera) (P01137 other isoform, or with tags, fused parts or gaps mutant): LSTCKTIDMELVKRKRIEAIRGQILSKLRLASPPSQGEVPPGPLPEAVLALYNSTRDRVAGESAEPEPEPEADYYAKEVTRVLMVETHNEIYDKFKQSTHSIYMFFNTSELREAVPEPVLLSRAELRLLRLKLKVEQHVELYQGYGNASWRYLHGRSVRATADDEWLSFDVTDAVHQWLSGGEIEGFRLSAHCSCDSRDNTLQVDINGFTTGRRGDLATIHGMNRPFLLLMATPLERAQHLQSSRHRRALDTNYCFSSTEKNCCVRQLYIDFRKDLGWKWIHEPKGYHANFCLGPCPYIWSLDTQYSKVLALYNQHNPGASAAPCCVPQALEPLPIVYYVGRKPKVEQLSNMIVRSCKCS

% of cells in Q1 (antibody axis positive, GARP negative) [1] | % of cells in Q2 (antibody axis positive, GARP positive) [1] | % GFP+/APC+ cells [2] | % GFP+/APC+ cells [3] | % GFP+/APC+ cells [4] | % GFP+/APC+ cells [5] | % GFP+/APC+ cells [6] | % GFP+/APC+ cells [7] | % GFP+/APC+ cells [8] | % GFP+/APC+ cells [9] | % GFP+/APC+ cells [10] | % GFP+/APC+ cells [11] | % GFP+/APC+ cells [12] | % GFP+/APC+ cells [13] | % GFP+/APC+ cells [14] | Substance
16.2% | 0.37% |  |  |  |  |  |  |  |  |  |  |  |  |  | Isotype Control (antibody)
 |  | 1.5% | 65.2% | 7.5% | 56.2% | 47.2% | 79.1% | 11.9% | 0.5% | 78.3% | 46.3% | 76.7% | 0.6% | 68.9% | rabbit monoclonal antibody raised against a peptide from the mature cytokine domain (Abcam ab179695)
